Data published in publication PMC3844621.

How the values were obtained:
[1] = molecular target: T1-S18.45 Q31A scTv, yeast-displayed (human); test: flow cytometry on cells
[2] = molecular target: T1 scTCR with wild-type CDR loops (stabilized version), Y51A, soluble (human); test: SPR

Question: With “MART-1/HLA-A2-biotin monomer (UV peptide exchange) (from UniProt P61769 21-119) (peptide-MHC)” as the substance, how does the other [1] read?
Answer: > 15 fold

Question: With “MART-1/HLA-A2 of the steady-state SPR (peptide variant not stated) (from UniProt P61769 21-119) (peptide-MHC)” as the substance, how does the Kd [2] read?
Answer: > 1 mM
